According to US20230047413A1 (Janssen / Centocor, published 2023):

Legend:
[1] = target: T1, PHF-tau (paired helical filament tau isolated from Alzheimer's disease brain) (human, UniProt P10636-8 2-441, limits assumed, hyper-phosphorylated, aggregated; sites not listed for the preparation); test: SPR ProteOn, PHF-tau capture-coupled via HT7, bivalent model
T1 construct: also called enriched PHF-tau; ePHF-tau
Method: (§1) Affinity matured monoclonal antibodies were tested for binding to PHF-tau isolated from Alzheimer's disease brain.
(§2) A GLC sensor chip was covalently immobilized with a mouse anti-tau antibody, HT7 (ThermoFisher, catalog# MN1000) using the vendor recommended protocol for amine-coupling chemistry (˜5000 response units, RU). The coupling buffer was 10 mM, pH 4.5 sodium acetate. PHF-tau was prepared by 2-times centrifugation at 5000×g in 5° C. for 10 min. […] After capture-coupling, the surface was activated and deactivated to generate a homogenous PHF-tau surface for antibody binding studies. The anti-tau antibodies and their Fabs (prepared in running buffer, 0.024-75 nM at 5-fold dilutions) were injected at 50 μL/min over the PHF-tau surface to measure binding. The association and dissociation profiles were monitored for 4 minutes and 2 hours, respectively. After dissociation, the sensor chip was regenerated using multiple injections of 10 mM Glycine pH 2.0 and the running buffer. A reference surface (without any PHF-tau) was used to monitor non-specific binding of the injected mAbs or Fabs. HT7 antibody was used as a positive control. The binding sensorgrams for mAbs were fit using a bivalent binding model where the apparent affinity or avidity-driven binding (KD) was reported as the ratio of off-rate and on-rate (koff/kₒₙ). A 1:1 Langmuir binding model was used for kinetics analysis of Fabs.

[2] = target: T1, PHF-tau (paired helical filament tau …); test: SPR ProteOn, PHF-tau capture-coupled via HT7, bivalent model; upper end of range; upper end of range
Method: as §1
as §2, with “A 1:1 Langmuir binding model was used for kinetics analysis of Fabs.” left out

[3] = target: T1, PHF-tau (paired helical filament tau …); test: SPR ProteOn, PHF-tau on chip
[4] = target: T2, tau phospho-peptide of the direct ELISA of Example 11; test: direct ELISA, peptide coated
T2 construct: also called pT217 peptide; pT212/pT217 peptide
T2 sequence (main, as listed by the source): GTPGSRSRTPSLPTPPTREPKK
Procedure, shortened: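 Tau phospho-peptide coated directly on plates at 10 ng/mL overnight, then incubated with antibodies. Bound Fab detected with HRPO-labelled anti-Fab antibody (1:10000) and TMB substrate. Binding curves generated from the read-out.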

[5] = target: T1, PHF-tau (paired helical filament tau …); test: SPR ProteOn, PHF-tau capture-coupled via HT7, bivalent model; lower end of range; lower end of range
Method: as §1
as §2, with “A 1:1 Langmuir binding model was used for kinetics analysis of Fabs.” left out

[6] = target: T1, PHF-tau (paired helical filament tau …); test: SPR ProteOn, PHF-tau capture-coupled via HT7, bivalent model; lower end of range
Method: as §1
as §2, with “A 1:1 Langmuir binding model was used for kinetics analysis of Fabs.” left out

[7] = target: T1, PHF-tau (paired helical filament tau …); test: SPR ProteOn, PHF-tau capture-coupled via HT7, bivalent model; upper end of range
Method: as §1
as §2, with “A 1:1 Langmuir binding model was used for kinetics analysis of Fabs.” left out

[8] = target: T2, tau phospho-peptide of the direct ELISA …; test: direct ELISA on plate-coated tau phospho-peptide (10 ng/mL), detection with HRPO-labelled anti-Fab antibody
Method: Binding to tau phospho-peptide was analysed by ELISA where peptide (10 ng/mL) was directly coated to the plate overnight. […] After incubation with antibodies, plates were washed and 50 μL per well of HRPO labelled anti-Fab antibody (Jackson Immunoresearch laboratories) (diluted 1:10000 in blocking buffer). After another washing step detection was performed with “One step” TMB (Thermo Scientific) according to the manufacturers' instructions. Plates were analysed in EnVision® 2102 Multilabel Reader (Perkin Elmer, Waltham, Mass., USA). Binding curves were generated using GraphPad Prism7.0 software.

T1 sequence (P10636 other isoform, or with tags, fused parts or gaps limits assumed): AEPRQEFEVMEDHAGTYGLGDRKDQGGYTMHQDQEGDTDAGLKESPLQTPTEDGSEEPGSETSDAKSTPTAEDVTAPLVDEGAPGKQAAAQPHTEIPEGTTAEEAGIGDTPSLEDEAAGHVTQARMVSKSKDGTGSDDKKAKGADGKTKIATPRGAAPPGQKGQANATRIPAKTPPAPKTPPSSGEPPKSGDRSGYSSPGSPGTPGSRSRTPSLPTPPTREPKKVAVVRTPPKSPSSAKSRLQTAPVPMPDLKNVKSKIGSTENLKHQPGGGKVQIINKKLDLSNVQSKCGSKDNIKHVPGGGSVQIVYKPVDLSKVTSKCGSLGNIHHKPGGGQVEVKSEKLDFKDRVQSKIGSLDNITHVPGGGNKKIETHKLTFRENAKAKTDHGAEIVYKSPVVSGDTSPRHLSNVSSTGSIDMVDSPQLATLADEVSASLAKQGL

Kd [1]: 1.8 pM
koff [1]: 1.13e-05 s⁻¹
kon [1]: 6.17e+06 M⁻¹ s⁻¹
kon [2]: 6.61e+06 M⁻¹ s⁻¹
fold improvement in on-rate compared to the parent antibody (B296) [3]: 3 fold
EC50 [4]: 70.7 pM
kon [5]: 5.72e+06 M⁻¹ s⁻¹
Kd [6]: 1.6 pM
koff [6]: 1.08e-05 s⁻¹
Kd [7]: 2.1 pM
koff [7]: 1.17e-05 s⁻¹
EC50 (read off the curve) [8]: ~40 pM
B1: B711 (antibody, human IgG1, kappa, V domains shown)
VH: QVQLVESGGGVVQPGRSLRLSCAASGFTFTSYAMSWVRQAPGKGLEWVASITKGGNTYYADSVKGRFTISRDNSKNTLYLQMNSLRAEDTAVYYCARGWGIYGWFAYWGQVTLVTVSS
VL: DIQMTQSPSSLSASVGDRVTITCKASQDINRWLNWFQQKPGKAPKSLIYRANRLLDGVPSRFSGSGSGTDFTLTISSLQPEDFATYYCLQYDEFPLTFGQGTKLEIKR
notes: also called PT1B711
